Results on 1 molecule are retold here after patent publication US20130102644, “Prophylactic or Ameliorating Agent for Genetic Diseases” (published 2013).

This series has as its target hnRNP A1 (Homo sapiens, UniProt P09651 P09651:1-372). Description: EMSA; 100-400 ng protein; same as mutant at low protein, less efficient at 400 ng; 80 mM KCl, pH 7.9, E. coli tRNA, 20 C. As to conditions: tags: N-terminal GST (GST-pcDNA3), expressed in HEK293T; label: 32P. How it is done:
Human hnRNP A1 cDNA was amplified by PCR. The obtained amplified fragment was inserted to between the BamHI and NotI sites of GST-pcDNA3 to prepare a GST-hnRNP A1 plasmid. The whole sequence of this plasmid was determined to confirm the plasmid to comprise the fragment of interest. HEK293T cells were transfected with this GST-hnRNP A1 plasmid, and the obtained transformed cells were cultured. A whole cell lysate was prepared from the collected transformed cells according to the method described in the document (Methods Mol Biol (2008) 488, 357-365). The GST-hnRNP A1 protein was purified from the whole cell lysate using an anti-GST affinity resin (manufactured by Sigma-Aldrich Corp.), basically as described in the document (The Journal of Biological Chemistry (2002) 277, 7540-7545) except that the resin was washed twice with buffer solution E (20 mM Hepes-KOH (pH 7.9), 1000 mM KCl, 0.2 mM EDTA, 10% glycerol, and 1 mM DTT) before elution from the column. Subsequently, mutant exon 31 RNA or wild-type exon 31 RNA labeled with ³²P was mixed with the GST-hnRNP A1 protein and incubated at 20° C. for 30 minutes. The obtained complex was subjected to gel mobility shift assay. […]
The gel mobility shift assay was basically conducted according to the method described in the document (Nucleic Acids Research (1995) 23, 3638-3641). […] Bands were analyzed by autoradiography. […]
(In EMSA bound probe runs differently from free probe, usually more slowly.)

Chain of hnRNP A1 (P09651 whole entry, the tested form may be a part, one chain of several): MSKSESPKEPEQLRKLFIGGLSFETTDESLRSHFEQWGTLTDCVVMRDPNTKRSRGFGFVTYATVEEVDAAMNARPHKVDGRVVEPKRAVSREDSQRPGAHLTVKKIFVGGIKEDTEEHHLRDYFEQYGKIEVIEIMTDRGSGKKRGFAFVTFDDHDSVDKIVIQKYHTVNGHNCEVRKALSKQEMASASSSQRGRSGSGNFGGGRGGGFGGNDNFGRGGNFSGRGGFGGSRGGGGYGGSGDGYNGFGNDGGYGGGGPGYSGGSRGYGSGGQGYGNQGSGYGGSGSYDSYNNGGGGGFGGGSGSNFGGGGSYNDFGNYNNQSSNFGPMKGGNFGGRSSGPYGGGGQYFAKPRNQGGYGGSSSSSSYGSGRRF

B1: dystrophin exon 31 RNA wild-type (ssRNA)
RNA: AAAAUCCAAUCUGAUUUGACAAGUCAUGAGAUCAGUUUAGAAGAAAUGAAGAAACAUAAUCAGGGGAAGGAGGCUGCCCAAAGAGUCCUGUCUCAGAUUGAUGUUGCACAG
On to B1, for which the binding result was “binds”.
